FireProtDB (doi:10.1016/j.jmb.2009.08.013)

Conditions: Bos taurus; pH 7.2; 10 °C; Urea; Fluorescence; Sodium phosphate 25 mM; KCl 150 mM; whole UniProt chain shown

B1: Cellular tumor antigen p53 wild type, P67939 (protein)
chain: MEESQAELNVEPPLSQETFSDLWNLLPENNLLSSELSAPVDDLLPYTDVATWLDECPNEAPQMPEPSAPAAPPPATPAPATSWPLSSFVPSQKTYPGNYGFRLGFLQSGTAKSVTCTYSPSLNKLFCQLAKTCPVQLWVDSPPPPGTRVRAMAIYKKLEHMTEVVRRCPHHERSSDYSDGLAPPQHLIRVEGNLRAEYLDDRNTFRHSVVVPYESPEIDSECTTIHYNFMCNSSCMGGMNRRPILTIITLEDSCGNLLGRNSFEVRVCACPGRDRRTEEENLRKKGQSCPEPPPRSTKRALPTNTSSSPQPKKKPLDGEYFTLQIRGFKRYEMFRELNDALELKDALDGREPGESRAHSSHLKSKKRPSPSCHKKPMLKREGPDSD
- denaturant midpoint (higher = more stable): 5.21 M
